In publication PMC4242096 (Nature structural & molecular biology, 2013):
Positions count from the first letter of the chain named. Numbers in names are those of the source. Non-standard residues stand in square brackets, D forms with d. No end group written: not given here. pY = N[C@@H](Cc1ccc(OP(=O)(O)O)cc1)C(=O)O; pT = C[C@@H](OP(=O)(O)O)[C@H](N)C(=O)O; pS = N[C@@H](COP(=O)(O)O)C(=O)O

B1: S. cerevisiae Cks (Cks1), wild type (natural protein, UniProt P20486 1-150, looked up)
chain: MYHHYHAFQGRKLTDQERARVLEFQDSIHYSPRYSDDNYEYRHVMLPKAMLKVIPSDYFNSEVGTLRILTEDEWRGLGITQSLGWEHYECHAPEPHILLFKRPLNYEAELRAATAAAQQQQQQQQQQQQQQQQHQTQSISNDMQVPPQIS

Assays:
[1] = target: phosSic1ΔC ΔC (Saccharomyces cerevisiae) (UniProt P38634); settings: cited from earlier work
[2] = target: phosSic1 N-terminus N-terminus (Saccharomyces cerevisiae) (UniProt P38634); settings: cited from earlier work
S. cerevisiae Cks (Cks1) = target: T1, S. cerevisiae Cks (Cks1) (Saccharomyces cerevisiae, UniProt P20486); assay: Isothermal titration calorimetry; assay type: binding; settings: ITC; for Cks1 Kd (µM): phosphorylated Cdk substrate peptides, value ± error as printed
T1 sequence (P20486 1-150): B1 chain

phosphorylated Cdc6^1–48 = phosphorylated Cdc6^1–48 (UniProt P09119); assay: ITC
[3] = target: T2, Cdc6^(1–48;T7A T39A S43A), only T23 phosphorylated (UniProt P09119 1-48, T7A | T39A | S43A, only T23 phosphorylated); assay: ITC
T2 chain (looked up): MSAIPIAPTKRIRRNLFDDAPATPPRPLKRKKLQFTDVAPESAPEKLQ

[4] = target: T3, Cdc6^(1–48;T23A T39A S43A), only T7 phosphorylated (UniProt P09119 1-48, T23A | T39A | S43A, only T7 phosphorylated); assay: ITC
T3 chain (looked up): T2 chain (looked up) with A7T, T23A

[5] = target: B1; assay: ITC

Sequence of phosSic1 N-terminus N-terminus (Saccharomyces cerevisiae) (P38634 1-100): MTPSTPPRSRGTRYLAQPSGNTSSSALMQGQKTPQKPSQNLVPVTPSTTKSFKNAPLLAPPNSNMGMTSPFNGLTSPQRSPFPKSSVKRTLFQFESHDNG
Sequence of phosSic1ΔC ΔC (Saccharomyces cerevisiae) (P38634 1-215, stated change not applied): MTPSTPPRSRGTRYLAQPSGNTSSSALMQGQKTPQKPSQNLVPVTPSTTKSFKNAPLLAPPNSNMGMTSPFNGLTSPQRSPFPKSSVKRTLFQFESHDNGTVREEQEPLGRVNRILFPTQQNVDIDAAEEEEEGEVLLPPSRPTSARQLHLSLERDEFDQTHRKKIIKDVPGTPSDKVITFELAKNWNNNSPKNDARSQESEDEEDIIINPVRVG

Row | Molecule | Kd [5] | other results
1 | Cks1 (from UniProt P20486) | – | Kd [1]: 20 µM; Kd [2]: 11 µM
2 | SAIPI[pS]PTK [phosCdc6^2–10; pT7pS] | – | Cks1 Kd (µM) (S. cerevisiae Cks (Cks1)): no heat
3 | SAIPI[pY]PTK [phosCdc6^2–10; pT7pY] | – | Cks1 Kd (µM) (S. cerevisiae Cks (Cks1)): no heat
4 | phosCdc6^1–48: purified N-terminal domain of Cdc6 (residues 1–48) phosphorylated with recombinant Cdk (MSAIPI[pT]PTKRIRRNLFDDAPA[pT]PPRPLKRKKLQFTDV[pT]PES[pS]PEKLQ) | – | stoichiometry parameter n (Cks1 molecules per Cdc6 molecule) (S. cerevisiae Cks (Cks1); data fit to a one site model): ≈ 2
5 | S. cerevisiae Cks (Cks1), wild type (from UniProt P20486 1-150) (natural protein) | – | Kd (phosphorylated Cdc6^1–48): 9.8 µM; stoichiometry N (phosphorylated Cdc6^1–48): 2
6 | B1 | – | stoichiometry N [3]: ~1; stoichiometry N [4]: ~1
7 | SAIPI[pT]P [phosCdc6^2–8] | 62 ± 2 µM | –
8 | EEIS[pT]PTR [phosSwe1^369–376] | 160 ± 70 µM | –
9 | TYS[pT]PPRS [phosSic1^(2–9; P3Y)] | 90 ± 50 µM | –
10 | AIPI[pT]PT [phosCdc6^3–9] | 61 ± 9 µM | –
11 | TPS[pT]PKRS [phosSic1^(2–9; P7K)] | 120 ± 20 µM | –
12 | ESVT[pT]PIT [phosSwe1^117–124] | 170 ± 90 µM | –
13 | AIPI[pT]P [phosCdc6^3–8] | 81 ± 6 µM | –
14 | TPS[pT]PTRS [phosSic1^(2–9; P7T)] | 70 ± 20 µM | –
15 | SAIPI[pT]PTK [phosCdc6^2–10] | 130 ± 60 µM | –
16 | TPS[pT]PPRS [phosSic1^2–9] | 95 ± 8 µM | –
17 | RIPE[pT]PVK [phosSwe1^192–199] | 60 ± 10 µM | –
